Measured values published in publication PMC4676284 (mBio, 2015).

Target: the molecule itself
Assay: crystal structure

| Protein | stoichiometry N |
| --- | --- |
| Bartonella birtlesii strain LL-WM9 TrwG, soluble C-terminal periplasmic domain (domain or fragment) QPAPTPLVLRVDNTTGAVDVISVMREHETSYGEVVDRYWLNQYVLNRETYDYDTIQLNYDTTALLSTAAVQQEFYKIYEGEDARDKVLSNKARITVKVRSIQPNGRGQATVRFTTQQHDSTGAVGVKQHQIATIGYTYVGAPMKSSDRLLNPLGFQVTSYRTDPEILLNN | 2 |
| Bartonella grahamii strain as4aup TrwG, soluble C-terminal periplasmic domain (domain or fragment) QPAPTPLVLRVDNTTGAVDVISVMREHETSYGEVVDRYWLNQYVLNRENYDYDTIQLNYDTTALLSAASVQQEYYKIYDGENARDKVLSNKARITVKVRSIQLNGLGQATVRFTTQQLDSSGATTGPKQHQIATIGYTYVGAPMKSSDRLLNPLGFQITSYRSDPEILLND | 2 |
| Bartonella grahamii strain as4aup VirB8, soluble C-terminal periplasmic domain (domain or fragment) ALTPLKTVEPFVIRVDNSTGIIDTVSALKESPNDYDEAITRYFASQYVRAREGFQASEAENNFRLVSLLSSPKEQNRFGKWYAGNNPESPQNIYHNMIATVTIKSISFISKDLIQVRYYKTVRDFNEKENISHWISILNFSYVNAHISTSDRLINPLGFQVSEYRSDPEVIK | 2 |
